Results as given in ChEMBL document CHEMBL1212722, “Designer enzymes for glycosphingolipid synthesis by directed evolution” (Nat Chem Biol, 2009).
Changes are numbered by the printed parent chain. Names may count otherwise.

How the values were obtained:
[1] = substrate: CC(=O)N[C@H]1[C@H](O[C@@H]2[C@H](O[C@]3(C(=O)O)C[C@H](O)[C@@H](NC(C)=O)[C@H]([C@@H](O)[C@@H](O)CO)O3)[C@@H](O)[C@H](O[C@H]3[C@H](O)[C@@H](O)[C@@H](F)O[C@@H]3CO)O[C@@H]2CO)O[C@H](CO)[C@H](O)[C@@H]1O[C@@H]1O[C@H](CO)[C@H](O)[C@H](O)[C@H]1O; test: (§1) Activity of Rhodococcus sp. M777 Endoglycoceramidase 2 I276F mutant
[2] = substrate: CCCCCCCCCCCCC/C=C/[C@@H](O)[C@@H](N)CO; test: as §1
[3] = substrate: CC(=O)N[C@H]1[C@H](O[C@@H]2[C@H](O[C@]3(C(=O)O)C[C@H](O)[C@@H](NC(C)=O)[C@H]([C@@H](O)[C@@H](O)CO)O3)[C@@H](O)[C@H](O[C@H]3[C@H](O)[C@@H](O)[C@@H](F)O[C@@H]3CO)O[C@@H]2CO)O[C@H](CO)[C@H](O)[C@@H]1O[C@@H]1O[C@H](CO)[C@H](O)[C@H](O)[C@H]1O; test: (§2) Ratio of Kcat to Km of Activity of Rhodococcus sp. M777 Endoglycoceramidase 2 I276F mutant
[4] = substrate: CCCCCCCCCCCCC/C=C/[C@@H](O)[C@@H](N)CO; test: as §2
[5] = substrate: CC(=O)N[C@H]1[C@H](O[C@@H]2[C@H](O[C@]3(C(=O)O)C[C@H](O)[C@@H](NC(C)=O)[C@H]([C@@H](O)[C@@H](O)CO)O3)[C@@H](O)[C@H](O[C@H]3[C@H](O)[C@@H](O)[C@@H](F)O[C@@H]3CO)O[C@@H]2CO)O[C@H](CO)[C@H](O)[C@@H]1O[C@@H]1O[C@H](CO)[C@H](O)[C@H](O)[C@H]1O; test: (§3) Activity of Rhodococcus sp. M777 Endoglycoceramidase 2 T257I T416A mutant
[6] = substrate: CCCCCCCCCCCCC/C=C/[C@@H](O)[C@@H](N)CO; test: as §3
[7] = substrate: CC(=O)N[C@H]1[C@H](O[C@@H]2[C@H](O[C@]3(C(=O)O)C[C@H](O)[C@@H](NC(C)=O)[C@H]([C@@H](O)[C@@H](O)CO)O3)[C@@H](O)[C@H](O[C@H]3[C@H](O)[C@@H](O)[C@@H](F)O[C@@H]3CO)O[C@@H]2CO)O[C@H](CO)[C@H](O)[C@@H]1O[C@@H]1O[C@H](CO)[C@H](O)[C@H](O)[C@H]1O; test: (§4) Ratio of Kcat to Km of Activity of Rhodococcus sp. M777 Endoglycoceramidase 2 T257I T416A mutant
[8] = substrate: CCCCCCCCCCCCC/C=C/[C@@H](O)[C@@H](N)CO; test: as §4
[9] = substrate: CC(=O)N[C@H]1[C@H](O[C@@H]2[C@H](O[C@]3(C(=O)O)C[C@H](O)[C@@H](NC(C)=O)[C@H]([C@@H](O)[C@@H](O)CO)O3)[C@@H](O)[C@H](O[C@H]3[C@H](O)[C@@H](O)[C@@H](F)O[C@@H]3CO)O[C@@H]2CO)O[C@H](CO)[C@H](O)[C@@H]1O[C@@H]1O[C@H](CO)[C@H](O)[C@H](O)[C@H]1O; test: (§5) Activity of Rhodococcus sp. M777 Endoglycoceramidase 2 V269I mutant
[10] = substrate: CCCCCCCCCCCCC/C=C/[C@@H](O)[C@@H](N)CO; test: as §5
[11] = substrate: CC(=O)N[C@H]1[C@H](O[C@@H]2[C@H](O[C@]3(C(=O)O)C[C@H](O)[C@@H](NC(C)=O)[C@H]([C@@H](O)[C@@H](O)CO)O3)[C@@H](O)[C@H](O[C@H]3[C@H](O)[C@@H](O)[C@@H](F)O[C@@H]3CO)O[C@@H]2CO)O[C@H](CO)[C@H](O)[C@@H]1O[C@@H]1O[C@H](CO)[C@H](O)[C@H](O)[C@H]1O; test: (§6) Ratio of Kcat to Km of Activity of Rhodococcus sp. M777 Endoglycoceramidase 2 V269I mutant
[12] = substrate: CCCCCCCCCCCCC/C=C/[C@@H](O)[C@@H](N)CO; test: as §6
[13] = substrate: CC(=O)N[C@H]1[C@H](O[C@@H]2[C@H](O[C@]3(C(=O)O)C[C@H](O)[C@@H](NC(C)=O)[C@H]([C@@H](O)[C@@H](O)CO)O3)[C@@H](O)[C@H](O[C@H]3[C@H](O)[C@@H](O)[C@@H](F)O[C@@H]3CO)O[C@@H]2CO)O[C@H](CO)[C@H](O)[C@@H]1O[C@@H]1O[C@H](CO)[C@H](O)[C@H](O)[C@H]1O; test: (§7) Ratio of Kcat to Km of Activity of Rhodococcus sp. M777 Endoglycoceramidase 2 V269I G370R mutant
[14] = substrate: CCCCCCCCCCCCC/C=C/[C@@H](O)[C@@H](N)CO; test: as §7
[15] = substrate: CC(=O)N[C@H]1[C@H](O[C@@H]2[C@H](O[C@]3(C(=O)O)C[C@H](O)[C@@H](NC(C)=O)[C@H]([C@@H](O)[C@@H](O)CO)O3)[C@@H](O)[C@H](O[C@H]3[C@H](O)[C@@H](O)[C@@H](F)O[C@@H]3CO)O[C@@H]2CO)O[C@H](CO)[C@H](O)[C@@H]1O[C@@H]1O[C@H](CO)[C@H](O)[C@H](O)[C@H]1O; test: (§8) Activity of Rhodococcus sp. M777 Endoglycoceramidase 2 V269I G370R mutant
[16] = substrate: CCCCCCCCCCCCC/C=C/[C@@H](O)[C@@H](N)CO; test: as §8
[17] = substrate: CC(=O)N[C@H]1[C@H](O[C@@H]2[C@H](O[C@]3(C(=O)O)C[C@H](O)[C@@H](NC(C)=O)[C@H]([C@@H](O)[C@@H](O)CO)O3)[C@@H](O)[C@H](O[C@H]3[C@H](O)[C@@H](O)[C@@H](F)O[C@@H]3CO)O[C@@H]2CO)O[C@H](CO)[C@H](O)[C@@H]1O[C@@H]1O[C@H](CO)[C@H](O)[C@H](O)[C@H]1O; test: (§9) Ratio of Kcat to Km of Activity of Rhodococcus sp. M777 Endoglycoceramidase 2 G370E mutant
[18] = substrate: CCCCCCCCCCCCC/C=C/[C@@H](O)[C@@H](N)CO; test: as §9
[19] = substrate: CC(=O)N[C@H]1[C@H](O[C@@H]2[C@H](O[C@]3(C(=O)O)C[C@H](O)[C@@H](NC(C)=O)[C@H]([C@@H](O)[C@@H](O)CO)O3)[C@@H](O)[C@H](O[C@H]3[C@H](O)[C@@H](O)[C@@H](F)O[C@@H]3CO)O[C@@H]2CO)O[C@H](CO)[C@H](O)[C@@H]1O[C@@H]1O[C@H](CO)[C@H](O)[C@H](O)[C@H]1O; test: (§10) Activity of Rhodococcus sp. M777 Endoglycoceramidase 2 G370E mutant
[20] = substrate: CCCCCCCCCCCCC/C=C/[C@@H](O)[C@@H](N)CO; test: as §10

B1: Endoglycoceramidase II (Rhodococcus sp), A0ACD6B832 I276F (protein)
chain: MRRTRLVSLIVTGSLVFGGGVAAAQSSLAASGSGSGSGTALTPSYLKDDDGRSLILRGFNTASSAKSAPDGMPQFTEADLAREYADMGTNFVRFLISWRSVEPAPGVYDQQYLDRVEDRVGWYAERGYKVMLDMHQDVYSGAITPEGNSGNGAGAIGNGAPAWATYMDGLPVEPQPRWELYYIQPGVMRAFDNFWNTTGKHPELVEHYAKAWRAVADRFADNDAVVAYDLMNEPFGGSLQGPAFEAGPLAAMYQRTTDAIRQVDQDTWVCVAPQAFGVNQGLPSGLTKIDDPRAGQQRIAYCPHLYPLPLDIGDGHEGLARTLTDVTIDAWRANTAHTARVLGDVPIILGEFGLDTTLPGARDYIERVYGTAREMGAGVSYWSSDPGPWGPYLPDGTQTLLVDTLNKPYPRAVAGTPTEWSSTSDRLQLTIEPDAAITAPTEIYLPEAGFPGDVHVEGADVVGWDRQSRLLTVRTPADSGNVTVTVTPAA
- Km [1]: 1300 µM
- kcat [1]: 0.11 s⁻¹
- Km [2]: 130 µM
- kcat [2]: 0.11 s⁻¹
- kcat/Km [3]: 86 M⁻¹ s⁻¹
- kcat/Km [4]: 846 M⁻¹ s⁻¹

B2: Endoglycoceramidase II (Rhodococcus sp), A0ACD6B832 T257I,T416A (protein)
chain: B1 chain with T257I, F276I, T416A
- Km [5]: 370 µM
- kcat [5]: 0.11 s⁻¹
- Km [6]: 870 µM
- kcat [6]: 0.18 s⁻¹
- kcat/Km [7]: 297 M⁻¹ s⁻¹
- kcat/Km [8]: 206 M⁻¹ s⁻¹

B3: Endoglycoceramidase II (Rhodococcus sp), A0ACD6B832 V269I (protein)
chain: B1 chain with V269I, F276I
- Km [9]: 600 µM
- kcat [9]: 0.13 s⁻¹
- Km [10]: 810 µM
- kcat [10]: 0.18 s⁻¹
- kcat/Km [11]: 217 M⁻¹ s⁻¹
- kcat/Km [12]: 222 M⁻¹ s⁻¹

B4: Endoglycoceramidase II (Rhodococcus sp), A0ACD6B832 V269I,G370R (protein)
chain: B1 chain with V269I, F276I, G370R
- kcat/Km [13]: 191 M⁻¹ s⁻¹
- kcat/Km [14]: 542 M⁻¹ s⁻¹
- Km [15]: 890 µM
- kcat [15]: 0.17 s⁻¹
- Km [16]: 480 µM
- kcat [16]: 0.26 s⁻¹

B5: Endoglycoceramidase II (Rhodococcus sp), A0ACD6B832 G370E (protein)
chain: B1 chain with F276I, G370E
- kcat/Km [17]: 247 M⁻¹ s⁻¹
- kcat/Km [18]: 418 M⁻¹ s⁻¹
- Km [19]: 850 µM
- kcat [19]: 0.21 s⁻¹
- Km [20]: 670 µM
- kcat [20]: 0.28 s⁻¹
